Sequences and labels used below:
T1: mouse IL-2Rβ (mouse) (UniProt P16297)
T1 sequence (looked up): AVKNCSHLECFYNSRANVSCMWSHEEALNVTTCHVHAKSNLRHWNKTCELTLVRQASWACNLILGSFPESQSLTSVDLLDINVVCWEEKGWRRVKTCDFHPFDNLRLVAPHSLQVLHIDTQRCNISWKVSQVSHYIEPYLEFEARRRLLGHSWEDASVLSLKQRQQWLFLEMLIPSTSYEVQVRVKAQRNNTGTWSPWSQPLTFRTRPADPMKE

B1: FJ1427 P035MP02A12 (VHH)
VHH: QVQLQESGGGLVQAGGSLRLSCAVSGRSFRNYVMGWFRQAPGREREIVAGITQFTSTTYYDDSVKGRFTISRDNAKNTVYLQMNSLKPEDTALYYCAADRSIKMTADWAYWGQGTQVTVSS
B2: FJ1427_P035MP02E12 (VHH)
VHH: QVQLQESGGGLVQAGGSMRLSCAASGRTFSNYVIAWFRQAPGKEREFVGAITQTGRGTFYASSVEGRFTLSRLNDQSTVYLQMNSLNPEDTGVYYCSAPRSGRAGTRNQMDYEYWGQGTQVTVSS
B3: FJ1427_P035MP02C12 (VHH)
VHH: EVQLVESGGGSVQAGGSLRLSCAASGRTFSDYTMGWFRQAPGKEREFVVAITGTGHTTDMPDSVEGRFTISRDNAKNTIYLDMKNLKPGDTAVYYCASARGLPVTPLGDIIYWGEGTLVTVSS
B4: FJ1427_P035MP02D12 (VHH)
VHH: QVQLVESGGGLVQAGGSLTLSCAASGGAFSSDAKAWFRQAPGKEREFVAAITWAGRGTDYADSVKGRFTITRDNAKATVHLQMNSLKPEDTAVYYCALNPRGVIGPAFRNSNHYTYWGQGTQVTVSS
B5: FJ1427_P035MP02H11 (VHH)
VHH: EVQLVESGGGLVQAGGSLRLSCAASGRTFSTTEMGWFRQAPGKEREFVAAITWTGRGTMYAESVEGRFTISRENAKNMVYLQMNSLKPEDTAIYYCAAARRGRAAVRSEGGYDFWGQGTQVAVSS
B6: FJ1427 P035MP02B12 (VHH)
VHH: QVQLVESGGGLVQAGGSLRLSCAASGRADSNAIMAWFRQAPGKEREFIVAVTYSGMPTYQDDSVQGRFTASRDNAKNTVYLQMNSLKPEDTAVYYCAARMYSASTYYGDYDYWGQGTQVTVSS
B7: FJ1427_P035MP02F11 (VHH)
VHH: EVQLVESGGGLVQAGGSLRLSCAASGRDFSSYAMGWFRQAPGKEREFVVAITWTKRSTDFPDSVKGRFTISRDNAKNTVYLDMNSLKPEDTAVYYCASARGLPVTPLGDIIYWGEGTLVTVSS
B8: FJ1427_P035MP02G11 (VHH)
VHH: QLQLVESGGGLVQAGGSLRLSCAASGRDFSSYAMGWFRQAPGKEREFVVAITWTKRSTDFPDSVKGRFTISRDNAKNTVYLDMNSLKPEDTAVYYCASARGLPVTPLGDIIYWGEGTLVTVSS
B9: FJ1427 P035MP02D02 (VHH)
VHH: QVQLVESGGGLVQVGGSLSVSCAASGRSFDSITMAYFRQAPGNEREFIAGINFSGSRTAYGDSVKGRFTISRDNAKNTVFLQMNSLNPEDTAVYYCAASPRGFYGPGHALYDYWGQGTQVTVSS
B10: FJ1427 P035MP02G02 (VHH)
VHH: QVQLVESGGGLVQPGGSLRLSCAASGSHFISDVMGWYRQVPGKQRELVADMADGGSVKYGDSVKGRFTILRDSVKNTVTLQMSSLNPEDTGVYYCKAGLWITGRHFDYWGQGIQVTVTS
B11: FJ1427 P035MP02F02 (VHH)
VHH: EVQLVESGGGLVQAGGSLRLACALSGDVFVRYTMAWFRQAPGKEREFVASVTDSGRTTDYVASVQGRFTVSRDNNKNTVYLQMNSLKPEDTAVYYCAANTDYFQIRSLDRNTWGQGTQVTVSS
B12: FJ1427 P035MP02D01 (VHH)
VHH: QVQLQESGGGLVQTGGSLRLSCAASGSQFINDVMGWYRQVPGKQRELVADMDDTGSTKYADSVKGRFTILRDSVKNTAYLQMSNLKPEDTGVYYCKAGLWIKGRHSDYWGQGTQVTVSS
B13: FJ1427 P035MP02E02 (VHH)
VHH: EVQLVESGGGLVQTGGSLRLSCAASGSQFINDVMGWYRQVPGKQRELVADMDDTGSTKYADSVKGRFTILRDSVKNTAYLQMSNLKPEDTGVYYCKAGLWIKGRHSDYWGQGTQVTVSS
B14: FJ1427_P035MP02C02 (VHH)
VHH: QVQLVESGGGLVQPGGSLRLSCAASGSRFVSDFMGWYRQVPGKQRELVADMADGGSARYGDSVKGRFTILRDNMNSTAFLQMSSLKPEDTGVYYCKAGLWIAGRHFDYWGQGTQVTVSS
B15: FJ1427_P035MP02B03 (VHH)
VHH: QVQLVESGGGLVQTGGSLRLSCAASGSRFVSDFMGWYRQVPGKQRELVADMADGGSARYGDSVKGRFTILRDSGNSTAYLQMSSLKPEDTGVYYCKAGLWIAGRHFDYWGQGTQVTVSS
B16: FJ1427_P035MP02A03 (VHH)
VHH: QVQLVESGGGLVQPGGSLRLSCAASGFTFSNYAMSWVRQAPGKGLEWVSSITGAGRGTYYAESVKGRFTISRDNDKNTLYLQMNSLKPEDTAVYYCAKYDSSTFYPPTPARGIADRGQGTRVTVSS
B17: FJ1427_P035MP02F01 (VHH)
VHH: EVQLVESGGGLVQTGGSLRLSCAVSGSRFISDVMGWYRQVPGKQRELVADMADGGSAKYADSVKGRFSILRDSVKNTVYLQMSSLKPEDTGIYYCKAGLWIAGRHSDYWGQGTQVTVSS
B18: FJ1427_P035MP02G01 (VHH)
VHH: QVQLVESGGGLVQTGGSLRLSCAVSGSRFISDVMGWYRQVPGKQRELVADMADGGSAKYADSVKGRFSILRDSAKNTVYLQMSSLKPEDTGIYYCKAGLWIAGRHSDYWGQGTQVTVSS
B19: FJ1427_P035MP02B02 (VHH)
VHH: EVQLVESGGTLVQTGGSLRLSCVVSGSHFISDVMGWYRQVPGKQRELVADMADGGSAKYGDSVKGRFTIVRDSVKNTVYLQMSSLNPEDTGVYYCKAGLWIKGRHSDYWGQGTQVTVTS
B20: FJ1427_P035MP02H01 (VHH)
VHH: QVQLVESGGGLVQPGGSLGLSCAASGFTFDNYAMSWVRQAPGKGLEWVSSITGAGRGTHYADSVKGRFTISRDNAKNTLYLQMNSLKPEDTAVYYCAKYSSSTYYPPTPARGTDYRGPGTQVTVSS
B21: FJ1427_P035MP02A02 (VHH)
VHH: QVQLVESGGGLVQPGGSLRLSCAASGFTFDNYAMTWVRQAPGKGLEWVSSITGAGRGTHYADSVKGRFTISRDNAKNTLYLQVNSLKPEDTAVYYCARYSSSTYYPTTPVRGTDYRGQGTQVTVSS
B22: FJ1427_P035MP02E01 (VHH)
VHH: EVQLVESGGGLVQIGGSLRLSCAASGRTFSSITMAYFRQVPGKEREWVAGINFSGTRTFYADSVKGRFLISRDDAKSTMYLQMNSLKPEDTAVYYCAASPRGFYGPGNALYDYWGQGTQVTVSS
B23: FJ1427_P035MP02D03 (VHH)
VHH: QVQLVESGGGLVQAGGPLRLSCAASGGTFSSYAMGWFRQAPGKEREFVAATTRGGGRTMYAVSTEGRFTCSRDNAKNTVYLLMNSLKPEDTAVYYCAAMTSYYSGTYYPDSSDFDIWGQGTQVTVSS

23 molecules from US20240409645A1 can be followed below.

The first experiment has as its target T1, mouse IL-2Rβ (mouse). Description: P.E. binding ELISA on coated protein.
Turning to B1, the P.E. binding ELISA OD came out at 0.047 OD450 nm.

In turn, B2 had a P.E. binding ELISA OD of 0.048 OD450 nm.

With B3, the P.E. binding ELISA OD turned out to be 0.047 OD450 nm.

B4 came in with a P.E. binding ELISA OD of 0.046 OD450 nm.

B5 gave a P.E. binding ELISA OD of 0.049 OD450 nm.

In turn, B6 gave a P.E. binding ELISA OD of 0.048 OD450 nm.

Regarding B7, the P.E. binding ELISA OD turned out to be 0.047 OD450 nm.

Consider B8, for which the P.E. binding ELISA OD amounted to 0.049 OD450 nm.

The target in the next experiment is T1, mouse IL-2Rβ (mouse). Put plainly: P.E. ELISA, coated protein.
B9 came in with a P.E. binding ELISA OD of 0.048 OD450 nm.

In the case of B10, the P.E. binding ELISA OD was 0.049 OD450 nm.

For the molecule B11, the P.E. binding ELISA OD was found to be 0.052 OD450 nm.

With B12, the P.E. binding ELISA OD worked out at 0.048 OD450 nm.

Consider B13, for which the P.E. binding ELISA OD is 0.049 OD450 nm.

Regarding B14, the P.E. binding ELISA OD stood at 0.048 OD450 nm.

As to B15, the P.E. binding ELISA OD stood at 0.048 OD450 nm.

B16 registered a P.E. binding ELISA OD of 0.048 OD450 nm.

As for B17, the P.E. binding ELISA OD worked out at 0.048 OD450 nm.

B18 showed a P.E. binding ELISA OD of 0.049 OD450 nm.

As to B19, the P.E. binding ELISA OD came to 0.048 OD450 nm.

B20 yielded a P.E. binding ELISA OD of 0.051 OD450 nm.

In the case of B21, the P.E. binding ELISA OD amounted to 0.049 OD450 nm.

Molecule B22 registered a P.E. binding ELISA OD of 0.049 OD450 nm.

Consider B23, for which the P.E. binding ELISA OD stood at 0.048 OD450 nm.
